Assay results published in paper PMC3531742 (The Journal of Biological Chemistry, 2012).

How the values were obtained:
[1] = target: laminin β1 LN-LEa1–4 fragment (mouse); experiment: SEC-MALS
[2] = target: laminin β1 LN-LEa1–4 fragment (mouse); experiment: SPR

B1: laminin γ1 LN-LEa1–4 fragment (domain or fragment)
chain: APLAAMDECADEGGRPQRCMPEFVNAAFNVTVVATNTCGTPPEEYCVQTGVTGVTKSCHLCDAGQQHLQHGAAFLTDYNNQADTTWWQSQTMLAGVQYPNSINLTLHLGKAFDITYVRLKFHTSRPESFAIYKRTREDGPWIPYQYYSGSCENTYSKANRGFIRTGGDEQQALCTDEFSDISPLTGGNVAFSTLEGRPSAYNFDNSPVLQEWVTATDIRVTLNRLNTFGDEVFNEPKVLKSYYYAISDFAVGGRCKCNGHASECVKNEFDKLMCNCKHNTYGVDCEKCLPFFNDRPWRRATAESASECLPCDCNGRSQECYFDPELYRSTGHGGHCTNCRDNTDGAKCERCRENFFRLGNTEACSPCHCSPVGSLSTQCDSYGRCSCKPGVMGDKCDRCQPGFHSLTEAGCRPCSCDPSGSTDECNVETGRCVCKDNVEGFNCERCKPGFFNLESSNPKGCTPAAAHHHHHH
With B1 the “stoichiometry N” value [1] was 1 and the Kd [2] was 22.3 ± 1.7 µM.
